In patent US20250326839A1 (VIGIL NEUROSCIENCE, published 2025):
Positions count from the first letter of the chain named.

T1: human TREM2 (human, UniProt Q9NZC2 19-174, limits assumed)
T1 construct: also called triggering receptor expressed on myeloid cells 2
T1 sequence: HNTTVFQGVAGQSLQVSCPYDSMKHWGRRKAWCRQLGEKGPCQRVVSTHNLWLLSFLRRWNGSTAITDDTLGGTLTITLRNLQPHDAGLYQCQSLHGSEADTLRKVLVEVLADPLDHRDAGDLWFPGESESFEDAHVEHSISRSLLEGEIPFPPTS

B1: V1 (antibody, V domains shown)
VH: EVQLVQSGAEVKKPGESLKISCKGSGYSFTSSWIAWVRQMPGKGLEWMGIIYPGDSDTRYSPSFQGQVTISADKSISTAYLQWSSLKASDTAMYFCARSRTFYYDSSDYFDYWGQGTLVTVSS
VL: DIQMTQSPSSVSASVGDRVTITCRASQGISSWLAWYQQKPGKAPKLLIYAASSLTNGVPSRFSGSGSGTDFTLTISSLQPEDFATYFCQQADSYPRTFGQGTKLEIK
notes: also called 6E7 variant V1
B2: V12 (antibody, V domains shown)
VH: B1 VH with S28E, S32Y, T58V, S99G
VL: B1 VL with T55Q, N56R, Y94F
notes: also called 6E7 variant V12
B3: V47 (antibody, V domains shown)
VH: B1 VH with S32Y, S99Q
VL: B1 VL with T55Q, Y94F, R96M
notes: also called 6E7 variant V47
B4: V90 (antibody, V domains shown)
VH: B1 VH with S32E, S99Q
VL: B1 VL with S31R, T55Q, Y94F
notes: also called 6E7 variant V90; LV-206/HV-206
B5: V45 (antibody, V domains shown)
VH: B1 VH with S32Y, S99Q
VL: B1 VL with W32F, T55Q, Y94F
notes: also called 6E7 variant V45
B6: V68 (antibody, V domains shown)
VH: B1 VH with S32Y, S99Q, Y103R
VL: B1 VL with T55Q, Y94F
notes: also called 6E7 variant V68
B7: V67 (antibody, V domains shown)
VH: B1 VH with S32Y, I50M, S99Q
VL: B1 VL with T55Q, Y94F
notes: also called 6E7 variant V67
B8: V69 (antibody, V domains shown)
VH: B1 VH with S32Y, S99Q
VL: B1 VL with W32Y, T55Q, Y94F
notes: also called 6E7 variant V69
B9: V66 (antibody, V domains shown)
VH: B1 VH with Y27T, S32Y, S99Q
VL: B1 VL with T55Q, Y94F
notes: also called 6E7 variant V66
B10: V80 (antibody, V domains shown)
VH: B1 VH with S32Y, S99Q, T101N
VL: B1 VL with T55Q, Y94F
notes: also called 6E7 variant V80
B11: V71 (antibody, V domains shown)
VH: B1 VH with S32Y, S99Q
VL: B1 VL with T55Q, Y94E
notes: also called 6E7 variant V71
B12: V83 (antibody, V domains shown)
VH: B1 VH with S32Y, S99Q
VL: B1 VL with T55Q, D92V, Y94F
notes: also called 6E7 variant V83
B13: V82 (antibody, V domains shown)
VH: B1 VH with S32Y, S99Q
VL: B1 VL with A51G, T55Q, Y94F
notes: also called 6E7 variant V82
B14: V59 (antibody, V domains shown)
VH: B1 VH with S32Y, S99Q
VL: B1 VL with T55Q, Q89M, Y94F
notes: also called 6E7 variant V59
B15: V46 (antibody, V domains shown)
VH: B1 VH with S32Y, S99Q
VL: B1 VL with S53T, T55Q, Y94F
notes: also called 6E7 variant V46
B16: V56 (antibody, V domains shown)
VH: B1 VH with S32Y, S61Q, S99Q
VL: B1 VL with T55Q, Y94F
notes: also called 6E7 variant V56
B17: V94 (antibody, V domains shown)
VH: B1 VH with S32Y, S99Q
VL: B1 VL with S52A, T55Q, Y94F
notes: also called 6E7 variant V94
B18: V91 (antibody, V domains shown)
VH: B1 VH with S32Y, G54D, S99Q
VL: B1 VL with T55Q, Y94F
notes: also called 6E7 variant V91
B19: V93 (antibody, V domains shown)
VH: B1 VH with S32Y, S99Q
VL: B1 VL with S31G, T55Q, Y94F
notes: also called 6E7 variant V93
B20: V70 (antibody, V domains shown)
VH: B1 VH with S32Y, S99Q
VL: B1 VL with S52G, T55Q, Y94F
notes: also called 6E7 variant V70; LV-204/HV-15
B21: V44 (antibody, V domains shown)
VH: B1 VH with S32Y, G54S, S99Q
VL: B1 VL with T55Q, Y94F
notes: also called 6E7 variant V44; LV-16/HV-204
B22: V58 (antibody, V domains shown)
VH: B1 VH with S32Y, S99Q
VL: B1 VL with A50K, T55Q, Y94F
notes: also called 6E7 variant V58
B23: V55 (antibody, V domains shown)
VH: B1 VH with S32Y, R59I, F64H, S99Q
VL: B1 VL with T55Q, Y94F
notes: also called 6E7 variant V55
B24: V54 (antibody, V domains shown)
VH: B1 VH with S32Q, S99Q
VL: B1 VL with T55Q, Y94F
notes: also called 6E7 variant V54
B25: V78 (antibody, V domains shown)
VH: B1 VH with S28R, S32Y, S99Q
VL: B1 VL with T55Q, Y94F
notes: also called 6E7 variant V78
B26: V79 (antibody, V domains shown)
VH: B1 VH with S32Y, R59N, S99Q
VL: B1 VL with T55Q, Y94F
notes: also called 6E7 variant V79
B27: V81 (antibody, V domains shown)
VH: B1 VH with S32Y, S99Q
VL: B1 VL with W32L, T55Q, Y94F
notes: also called 6E7 variant V81
B28: V2 (antibody, V domains shown)
VH: B1 VH with Y27S, S32Y, S56G
VL: B1 VL with L54R, T55Q, S93R, Y94F
notes: also called 6E7 variant V2
B29: V57 (antibody, V domains shown)
VH: B1 VH with S32Y, S99Q
VL: B1 VL with R24A, T55Q, Y94F
notes: also called 6E7 variant V57; LV-203/HV-15
B30: V92 (antibody, V domains shown)
VH: B1 VH with S32Y, S99Q, Y103H
VL: B1 VL with T55Q, Y94F
notes: also called 6E7 variant V92

What was measured:
human TREM2 [1] = target: T1, human TREM2; test: 2nd screen, 10 nM
human TREM2 [2] = target: T1, human TREM2; test: 2nd screen, 2 nM
human TREM2 [3] = target: T1, human TREM2; test: 1st screen, 10 nM Ab
human TREM2 [4] = target: T1, human TREM2; test: 2nd screen, 100 nM
human TREM2 [5] = target: T1, human TREM2; test: 1st screen, 110 nM Ab

Row | Binding Signal (human TREM2 [1]) | Binding Signal (human TREM2 [2]) | Binding Signal (human TREM2 [3]) | Binding Signal (human TREM2 [4]) | Binding Signal (human TREM2 [5]) | Binder
1 | 1.92 fold over 6E7 parental antibody | 1.29 fold over 6E7 parental antibody | 1.68 fold over 6E7 parental antibody | – | – | B1
2 | 2.58 fold over 6E7 parental antibody | – | – | – | – | B2
3 | – | – | – | 0.47 fold over 6E7 parental antibody | 0.42 fold over 6E7 parental antibody | B3
4 | – | – | – | 0.36 fold over 6E7 parental antibody | 0.33 fold over 6E7 parental antibody | B4
5 | – | – | – | 0.53 fold over 6E7 parental antibody | 0.43 fold over 6E7 parental antibody | B5
6 | – | – | – | 0.43 fold over 6E7 parental antibody | 0.44 fold over 6E7 parental antibody | B6
7 | – | – | – | 0.84 fold over 6E7 parental antibody | 0.8 fold over 6E7 parental antibody | B7
8 | – | – | – | 0.4 fold over 6E7 parental antibody | 0.41 fold over 6E7 parental antibody | B8
9 | – | – | – | 0.74 fold over 6E7 parental antibody | 0.25 fold over 6E7 parental antibody | B9
10 | – | – | – | 0.5 fold over 6E7 parental antibody | 0.59 fold over 6E7 parental antibody | B10
11 | – | – | – | 0.48 fold over 6E7 parental antibody | 0.37 fold over 6E7 parental antibody | B11
12 | – | – | – | 0.29 fold over 6E7 parental antibody | 0.2 fold over 6E7 parental antibody | B12
13 | – | – | – | 0.79 fold over 6E7 parental antibody | 0.3 fold over 6E7 parental antibody | B13
14 | – | – | – | 0.6 fold over 6E7 parental antibody | 0.19 fold over 6E7 parental antibody | B14
15 | – | – | – | 0.96 fold over 6E7 parental antibody | 0.83 fold over 6E7 parental antibody | B15
16 | – | – | – | 0.59 fold over 6E7 parental antibody | 0.23 fold over 6E7 parental antibody | B16
17 | – | – | – | 0.87 fold over 6E7 parental antibody | 0.31 fold over 6E7 parental antibody | B17
18 | – | – | – | 0.61 fold over 6E7 parental antibody | 0.25 fold over 6E7 parental antibody | B18
19 | – | – | – | 1.05 fold over 6E7 parental antibody | 0.35 fold over 6E7 parental antibody | B19
20 | – | – | – | 0.84 fold over 6E7 parental antibody | 0.79 fold over 6E7 parental antibody | B20
21 | – | – | – | 0.52 fold over 6E7 parental antibody | 0.65 fold over 6E7 parental antibody | B21
22 | – | – | – | 0.68 fold over 6E7 parental antibody | 0.28 fold over 6E7 parental antibody | B22
23 | – | – | – | 0.66 fold over 6E7 parental antibody | 0.24 fold over 6E7 parental antibody | B23
24 | – | – | – | 0.54 fold over 6E7 parental antibody | 0.55 fold over 6E7 parental antibody | B24
25 | – | – | – | 1.11 fold over 6E7 parental antibody | 0.86 fold over 6E7 parental antibody | B25
26 | – | – | – | 0.52 fold over 6E7 parental antibody | 0.7 fold over 6E7 parental antibody | B26
27 | – | – | – | 0.23 fold over 6E7 parental antibody | 0.17 fold over 6E7 parental antibody | B27
28 | 2.9 fold over 6E7 parental antibody | 2.23 fold over 6E7 parental antibody | 2.55 fold over 6E7 parental antibody | – | – | B28
29 | – | – | – | 0.85 fold over 6E7 parental antibody | 0.84 fold over 6E7 parental antibody | B29
30 | – | – | – | 0.65 fold over 6E7 parental antibody | 0.22 fold over 6E7 parental antibody | B30
